Biological target: T1, GST-tagged recombinant PfPHB2 (Plasmodium falciparum (3D7), UniProt Q8IJP8 1-304)
T1 sequence (looked up): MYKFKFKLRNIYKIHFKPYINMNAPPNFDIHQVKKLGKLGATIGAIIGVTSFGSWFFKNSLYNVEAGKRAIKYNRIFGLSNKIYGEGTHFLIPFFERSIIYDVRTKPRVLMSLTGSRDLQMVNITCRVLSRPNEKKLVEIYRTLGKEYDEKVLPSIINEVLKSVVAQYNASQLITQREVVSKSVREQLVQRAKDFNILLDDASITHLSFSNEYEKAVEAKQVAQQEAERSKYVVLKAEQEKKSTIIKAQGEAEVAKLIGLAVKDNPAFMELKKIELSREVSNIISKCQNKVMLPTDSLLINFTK
Experiment: MST

B1: GST-tagged recombinant PfPHB1 (natural protein, Plasmodium falciparum (3D7), UniProt Q8IBC3 1-272, looked up)
chain: MERILSSIGKLSVVAGGLSLIPYTFIYDVDGGERCVMFNRFGGVSENTFGEGSHFYVPWFQTPYIYDIKMKPKVINTTTGTRDLQIVTISLRLLFRPHTQHLPYLHSTLGPDYDERVLPSIGNEVLKAVVAKYNAESLLTQRDKISKEIRESITARAKHFNILLDDVAITHLSYGKEFAKAIEDKQVAQQESERVKFIVAKTEQEKIAAVIKAQGEAEAAKLISSAVKEYGKSLIEIRKLEAAKEIAENLSKSKNVTYFPSNSNILLNPRDF
modifications: Lysine reactive dye (Monolith Protein Labelling Kit Red-NHS 2nd Generation), in the MST only
Kd: 136 ± 10.5 nM

Reference: paper doi:10.1101/2022.06.02.494630 (bioRxiv, 2022)
